Data taken from PMC1283537 (2005).

Biological target: T1, Scd5 DxxDxxxD motif peptide (Saccharomyces cerevisiae, UniProt P34758)
T1 chain: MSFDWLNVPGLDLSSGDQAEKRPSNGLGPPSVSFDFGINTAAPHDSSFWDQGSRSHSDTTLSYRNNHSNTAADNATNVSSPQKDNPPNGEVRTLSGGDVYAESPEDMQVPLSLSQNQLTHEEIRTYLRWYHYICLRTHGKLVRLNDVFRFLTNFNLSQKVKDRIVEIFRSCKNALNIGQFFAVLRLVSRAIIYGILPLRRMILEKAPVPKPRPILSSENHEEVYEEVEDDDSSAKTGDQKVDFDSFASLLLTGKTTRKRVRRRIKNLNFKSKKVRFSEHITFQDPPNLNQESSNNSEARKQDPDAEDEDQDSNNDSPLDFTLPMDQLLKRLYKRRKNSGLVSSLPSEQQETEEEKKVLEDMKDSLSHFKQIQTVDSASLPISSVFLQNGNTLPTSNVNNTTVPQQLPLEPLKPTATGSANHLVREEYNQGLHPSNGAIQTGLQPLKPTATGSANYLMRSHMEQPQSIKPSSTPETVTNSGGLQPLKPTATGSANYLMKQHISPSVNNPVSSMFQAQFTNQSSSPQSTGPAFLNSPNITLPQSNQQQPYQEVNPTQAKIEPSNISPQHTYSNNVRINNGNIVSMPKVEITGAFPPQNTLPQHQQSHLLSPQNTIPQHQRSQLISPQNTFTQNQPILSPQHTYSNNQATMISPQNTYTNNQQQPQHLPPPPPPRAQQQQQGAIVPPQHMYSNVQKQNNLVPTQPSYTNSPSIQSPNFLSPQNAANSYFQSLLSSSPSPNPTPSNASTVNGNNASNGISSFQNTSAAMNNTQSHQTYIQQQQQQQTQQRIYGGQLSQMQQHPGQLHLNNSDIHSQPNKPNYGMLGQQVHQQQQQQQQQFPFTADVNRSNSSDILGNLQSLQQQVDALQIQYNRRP
Experiment: fluorescence polarization

- Kd: 22 µM
B1: PP1 (Glc7) (protein)
chain: MDSQPVDVDNIIDRLLEVRGSKPGQQVDLEENEIRYLCSKARSIFIKQPILLELEAPIKICGDIHGQYYDLLRLFEYGGFPPESNYLFLGDYVDRGKQSLETICLLLAYKIKYPENFFILRGNHECASINRIYGFYDECKRRYNIKLWKTFTDCFNCLPIAAIIDEKIFCMHGGLSPDLNSMEQIRRVMRPTDIPDVGLLCDLLWSDPDKDIVGWSENDRGVSFTFGPDVVNRFLQKQDMELICRAHQVVEDGYEFFSKRQLVTLFSAPNYCGEFDNAGAMMSVDESLLCSFQILKPAQKSLPRQAGGRKKK
modifications: fluorescently labelled peptide
